The text below walks through data of paper PMC4131202 (2013).

This test concerns the target actin filaments (UniProt P68133). As to the kind of experiment: pelleting assay.

B1: End4p TLD (protein)
chain: LLNAPGENIEELVDNQLAETAQAIQQAILRLQNIAAKPKDDSLSPSELQVHDSLLSASIAITEAIARLIKAATASQAEIVAQGRGSSSRGAFYKKHNRWTEGLISAAKAVARATTTLIETADGVVNGTSSFEHLIVACNGVSAATAQLVAASRVKANFASKVQDHLEDAAKAVTEACKALVRQVESVALKAKEVQHEDFSSLGVHEYRRKEIEQQVQILKLENDLVAARRRLFDMRKTSYHVA
For the molecule B1, the dissociation constant (Kd) is roughly 3000 nM.
